Assay results as given in US20200024330A1.

How the values were obtained:
Experiment in all cases: cell-based or functional assay
[1] = target: HIV-1 Env of isolate 92UG031 (HIV-1)
[2] = target: HIV-1 Env of isolate MGRM-F1-015 (subtype F), on pseudovirus (HIV-1)
[3] = target: HIV-1 Env of isolate MGRM-C-009 (HIV-1)
[4] = target: HIV-1 JR-CSF Env N156A (HIV-1 (isolate JR-CSF)) (UniProt P20871)
[5] = target: HIV-1 JR-CSF Env V182A (HIV-1 (isolate JR-CSF)) (UniProt P20871)
[6] = target: HIV-1 Env of isolate MGRM-A-013 (clade A), on pseudovirus (HIV-1)
[7] = target: HIV-1 Env of isolate MGRM-D-014 (HIV-1)
[8] = target: HIV-1 JR-CSF Env D113A (HIV-1 (isolate JR-CSF)) (UniProt P20871)
[9] = target: HIV-1 Env of isolate MGRM-A-011 (clade A), on pseudovirus (HIV-1)
[10] = target: HIV-1 Env of isolate 92WR026 (HIV-1)
[11] = target: HIV-1 Env of isolate MGRM-D-008 (HIV-1)
[12] = target: HIV-1 Env of isolate MGRM-D-013 (HIV-1)
[13] = target: HIV-1 Env of isolate MGRM-C-012 (HIV-1)
[14] = target: HIV-1 Env of isolate 92WR024 (HIV-1)
[15] = target: HIV-1 APV6 envelope glycoprotein (Env) on pseudovirus (HIV-1)
[16] = target: aMLV envelope on pseudovirus (negative control virus)
[17] = target: HIV-1 MGRM-D-018 envelope glycoprotein (Env) on pseudovirus (HIV-1)
[18] = target: HIV-1 Env of isolate 92UG024 (clade D) (HIV-1)

| Substance | neutralization IC50 [1] [µg/mL] | IC50, pseudovirus neutralization [2] [µg/mL] | IC50 [3] [µg/mL] | Fold IC50 increase relative to wild-type [4] [fold] | Fold IC50 increase relative to wild-type [5] [fold] | IC50, single-round pseudovirus neutralization [6] [µg/mL] | IC50 [7] [µg/mL] | Fold IC50 increase relative to wild-type [8] [fold] | IC50, single-round pseudovirus neutralization [9] [µg/mL] | neutralization IC50 [10] [µg/mL] | IC50 [11] [µg/mL] | IC50 [12] [µg/mL] | IC50 [13] [µg/mL] | neutralization IC50 [14] [µg/mL] | other results |
| --- | --- | --- | --- | --- | --- | --- | --- | --- | --- | --- | --- | --- | --- | --- | --- |
| 5114_A19 (PGT-128) (antibody) | > 50 | > 50 | > 50 | 0.4 | 1.2 | 0.008 | 0.013 | 0.5 | > 50 | 0.01 | 0.033 | 8.85 | 0.058 | > 50 |  |
| 5136_H01 (PGT-131) (antibody) | > 50 | > 50 | > 50 | 1 | 1.1 | > 50 | 0.516 |  | > 50 | 0.041 | > 50 | 4.14 | > 50 | > 50 |  |
| 5147_N06 (PGT-130) (antibody) | > 50 | > 50 | > 50 | 1.5 | 1.2 | > 50 | 0.061 | 0.8 | > 50 | 0.037 | > 50 | 0.429 | > 50 | > 50 | IC50 (ug/ml), neutralizing activity [15]: > 10 µg/mL; IC50 (ug/ml), neutralizing activity [16]: > 10 µg/mL; IC50 (ug/ml), neutralizing activity [17]: 0.0378 µg/mL; neutralization IC50 [18]: > 10 µg/mL; neutralization IC80 [18]: > 10 µg/mL; neutralization IC90 [18]: > 10 µg/mL; neutralization IC95 [18]: > 10 µg/mL |
| 5343_B08 (PGT-135) (antibody) | > 50 | 1.11 | > 50 | 0.3 | 1.5 | > 50 | 2.21 | 0.8 | > 50 | 0.068 | > 50 | > 50 | 0.017 | > 50 |  |
